From PMC5662131

Tests used:
[1] = target: T1, (His)6-KcsA, K+ channel from Streptomyces lividans (Streptomyces lividans), P0A334; experiment: SEC; settings: remark: other sources report otherwise
T1 chain: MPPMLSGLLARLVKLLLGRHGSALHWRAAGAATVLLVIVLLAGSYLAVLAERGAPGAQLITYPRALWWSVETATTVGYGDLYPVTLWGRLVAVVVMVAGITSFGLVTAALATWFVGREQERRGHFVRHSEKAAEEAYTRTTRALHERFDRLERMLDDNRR

[2] = target: T1, (His)6-KcsA, K+ channel from …; experiment: SDS-PAGE with Western blot; settings: remark: other sources report otherwise

- stoichiometry N [1]: 4
- stoichiometry N [2]: 4
B1: (His)6-KcsA, K+ channel from Streptomyces lividans, P0A334 1-160 (natural protein)
chain: T1 chain
